In patent US20200264182A1, “METHOD FOR DETECTING PROSTATE CANCER” (J-OIL MILLS, INC., priority 2017, published 2020):
Values belong to the substance of their own block, whether it stands above or below them.

Assays:
[1] = target: serum fucosylated PSA (prostate specific antigen) (human) (UniProt P07288); test: sandwich ELISA, anti-PSA antibody capture, biotin-lectin detection, pH 7.4; sera of the healthy person group (n=7)
[2] = target: serum fucosylated PSA (prostate specific antigen) (human) (UniProt P07288); test: sandwich ELISA, anti-PSA antibody capture, biotin-lectin detection, pH 7.4; serum of Healthy 4
[3] = target: serum fucosylated PSA (prostate specific antigen) (human) (UniProt P07288); test: sandwich ELISA, anti-PSA antibody capture, biotin-lectin detection, pH 7.4; serum of Healthy 1
[4] = target: serum fucosylated PSA (prostate specific antigen) (human) (UniProt P07288); test: sandwich ELISA, anti-PSA antibody capture, biotin-lectin detection, pH 7.4; serum of Prostate cancer 6 (GS 7)
[5] = target: serum fucosylated PSA (prostate specific antigen) (human) (UniProt P07288); test: sandwich ELISA, anti-PSA antibody capture, biotin-lectin detection, pH 7.4; serum of Prostate cancer 2 (GS 5)
[6] = target: serum fucosylated PSA (prostate specific antigen) (human) (UniProt P07288); test: sandwich ELISA, anti-PSA antibody capture, biotin-lectin detection, pH 7.4; sera of subgroup GS8 or more, n=3
[7] = target: serum fucosylated PSA (prostate specific antigen) (human) (UniProt P07288); test: sandwich ELISA, anti-PSA antibody capture, biotin-lectin detection, pH 7.4; sera of subgroup GS7, n=2
[8] = target: serum fucosylated PSA (prostate specific antigen) (human) (UniProt P07288); test: sandwich ELISA, anti-PSA antibody capture, biotin-lectin detection, pH 7.4; serum of Healthy 7
[9] = target: serum fucosylated PSA (prostate specific antigen) (human) (UniProt P07288); test: sandwich ELISA, anti-PSA antibody capture, biotin-lectin detection, pH 7.4; serum of Prostate cancer 5 (GS 7)
[10] = target: serum fucosylated PSA (prostate specific antigen) (human) (UniProt P07288); test: sandwich ELISA, anti-PSA antibody capture, biotin-lectin detection, pH 7.4; serum of Healthy 2
[11] = target: serum fucosylated PSA (prostate specific antigen) (human) (UniProt P07288); test: sandwich ELISA, anti-PSA antibody capture, biotin-lectin detection, pH 7.4; serum of Prostate cancer 9 (GS 8)
[12] = target: serum fucosylated PSA (prostate specific antigen) (human) (UniProt P07288); test: sandwich ELISA, anti-PSA antibody capture, biotin-lectin detection, pH 7.4; serum of Prostate cancer 7 (GS 8)
[13] = target: serum fucosylated PSA (prostate specific antigen) (human) (UniProt P07288); test: sandwich ELISA, anti-PSA antibody capture, biotin-lectin detection, pH 7.4; sera of the prostate cancer patient group (n=9)
[14] = target: serum fucosylated PSA (prostate specific antigen) (human) (UniProt P07288); test: sandwich ELISA, anti-PSA antibody capture, biotin-lectin detection, pH 7.4; serum of Healthy 6
[15] = target: serum fucosylated PSA (prostate specific antigen) (human) (UniProt P07288); test: sandwich ELISA, anti-PSA antibody capture, biotin-lectin detection, pH 7.4; serum of Prostate cancer 4 (GS 6)
[16] = target: serum fucosylated PSA (prostate specific antigen) (human) (UniProt P07288); test: sandwich ELISA, anti-PSA antibody capture, biotin-lectin detection, pH 7.4; serum of Prostate cancer 1 (GS 4)
[17] = target: serum fucosylated PSA (prostate specific antigen) (human) (UniProt P07288); test: sandwich ELISA, anti-PSA antibody capture, biotin-lectin detection, pH 7.4; sera of subgroup Negative (GS5 or less), n=2
[18] = target: serum fucosylated PSA (prostate specific antigen) (human) (UniProt P07288); test: sandwich ELISA, anti-PSA antibody capture, biotin-lectin detection, pH 7.4; serum of Healthy 3
[19] = target: serum fucosylated PSA (prostate specific antigen) (human) (UniProt P07288); test: sandwich ELISA, anti-PSA antibody capture, biotin-lectin detection, pH 7.4; serum of Prostate cancer 3 (GS 6)
[20] = target: serum fucosylated PSA (prostate specific antigen) (human) (UniProt P07288); test: sandwich ELISA, anti-PSA antibody capture, biotin-lectin detection, pH 7.4; serum of Prostate cancer 8 (GS 8)
[21] = target: serum fucosylated PSA (prostate specific antigen) (human) (UniProt P07288); test: sandwich ELISA, anti-PSA antibody capture, biotin-lectin detection, pH 7.4; serum of Healthy 5
[22] = target: serum fucosylated PSA (prostate specific antigen) (human) (UniProt P07288); test: sandwich ELISA, anti-PSA antibody capture, biotin-lectin detection, pH 7.4; sera of subgroup GS6, n=2
[23] = target: serum fucosylated PSA (prostate specific antigen) (human) (UniProt P07288); test: sandwich ELISA, anti-PSA antibody capture, biotin-lectin detection, lectin reaction pH 9.6; serum of Prostate cancer 4
[24] = target: serum fucosylated PSA (prostate specific antigen) (human) (UniProt P07288); test: sandwich ELISA, anti-PSA antibody capture, biotin-lectin detection, lectin reaction pH 7.4; serum of Healthy 1
[25] = target: serum fucosylated PSA (prostate specific antigen) (human) (UniProt P07288); test: sandwich ELISA, anti-PSA antibody capture, biotin-lectin detection, lectin reaction pH 7.4; serum of Prostate cancer 4
[26] = target: serum fucosylated PSA (prostate specific antigen) (human) (UniProt P07288); test: sandwich ELISA, anti-PSA antibody capture, biotin-lectin detection, lectin reaction pH 9.6; serum of Healthy 1

Substance: Aleuria aurantia lectin (AAL), biotin-labeled (from UniProt P18891 2-313)
AAL reaction value (average value) [1]: 769 U/mL
AAL reaction value (median value) [1]: 1030 U/mL
AAL reaction value [2]: 115 U/mL
AAL reaction value [3]: 1100 U/mL
AAL reaction value [4]: 962 U/mL
AAL reaction value [5]: 1030 U/mL
AAL reaction value (mean value) [6]: 1070 U/mL
AAL reaction value (median value) [6]: 1010 U/mL
AAL reaction value (mean value) [7]: 993 U/mL
AAL reaction value (median value) [7]: 993 U/mL
AAL reaction value [8]: 1030 U/mL
AAL reaction value [9]: 1020 U/mL
AAL reaction value [10]: 855 U/mL
AAL reaction value [11]: 988 U/mL
AAL reaction value [12]: 1210 U/mL
AAL reaction value (average value) [13]: 1020 U/mL
AAL reaction value (median value) [13]: 1010 U/mL
AAL reaction value [14]: 1190 U/mL
AAL reaction value [15]: 926 U/mL
AAL reaction value [16]: 831 U/mL
AAL reaction value (mean value) [17]: 932 U/mL
AAL reaction value (median value) [17]: 932 U/mL
AAL reaction value [18]: 1060 U/mL
AAL reaction value [19]: 1150 U/mL
AAL reaction value [20]: 1010 U/mL
AAL reaction value [21]: 32.3 U/mL
AAL reaction value (mean value) [22]: 1040 U/mL
AAL reaction value (median value) [22]: 1040 U/mL

Substance: Naematoloma sublateritium lectin (NSL), biotin-labeled
NSL reaction value [23]: 283 U/mL
NSL reaction value [24]: 178 U/mL
NSL reaction value [25]: 400 U/mL
NSL reaction value [26]: 42.3 U/mL

Substance: Stropharia rugosoannulata lectin (SRL), biotin-labeled
SRL reaction value [23]: 234 U/mL
SRL reaction value [24]: 20 U/mL
SRL reaction value [25]: 146 U/mL
SRL reaction value [26]: 16.8 U/mL

More lines, now with the values ahead:

AML reaction value [23]: 151 U/mL
AML reaction value [24]: 21.2 U/mL
AML reaction value [25]: 141 U/mL
Substance: Amanita muscaria lectin (AML), biotin-labeled

PhoSL peptide reaction value [23]: 234 U/mL
PhoSL peptide reaction value [24]: 1 U/mL
PhoSL peptide reaction value [25]: 102 U/mL
Substance: Pholiota squarrosa lectin peptide (PhoSL peptide), biotin-labeled
